# From paper PMC8581553 (Cell reports, 2021)
# B1: HA-SNAP-GluK3 (receptor, rat, UniProt P42264 32-919, looked up)
# chain: MPHVIRIGGIFEYADGPNAQVMNAEEHAFRFSANIINRNRTLLPNTTLTYDIQRIHFHDSFEATKKACDQLALGVVAIFGPSQGSCTNAVQSICNALEVPHIQLRWKHHPLDNKDTFYVNLYPDYASLSHAILDLVQSLKWRSATVVYDDSTGLIRLQELIMAPSRYNIRLKIRQLPIDSDDSRPLLKEMKRGREFRIIFDCSHTMAAQILKQAMAMGMMTEYYHFIFTTLDLYALDLEPYRYSGVNLTGFRILNVDNAHVSAIVEKWSMERLQAAPRAESGLLDGVMMTDAALLYDAVHIVSVCYQRASQMTVNSLQCHRHKPWRFGGRFMNFIKEAQWEGLTGRIVFNKTSGLRTDFDLDIISLKEDGLEKVGVWSPADGLNITEVAKGRGPNVTDSLTNRSLIVTTLLEEPFVMFRKSDRTLYGNDRFEGYCIDLLKELAHILGFSYEIRLVEDGKYGAQDDKGQWNGMVKELIDHKADLAVAPLTITHVREKAIDFSKPFMTLGVSILYRKPNGTNPSVFSFLNPLSPDIWMYVLLAYLGVSCVLFVIARFSPYEWYDAHPCNPGSEVVENNFTLLNSFWFGMGSLMQQGSELMPKALSTRIIGGIWWFFTLIIISSYTANLAAFLTVERMESPIDSADDLAKQTKIEYGAVKDGATMTFFKKSKISTFEKMWAFMSSKPSALVKNNEEGIQRTLTADYALLMESTTIEYITQRNCNLTQIGGLIDSKGYGIGTPMGSPYRDKITIAILQLQEEDKLHIMKEKWWRGSGCPEEENKEASALGIQKIGGIFIVLAAGLVLSVLVAVGEFIYKLRKTAEREQRSFCSTVADEIRFSLTCQRRLKHKPQPPMMVKTDAVINMHTFNDRRLPGKDSMSCSTSLAPVFP
# modifications: SNAP tag labelled with SBG-OG (Oregon Green)
# Experiments:
# [1] = target: the molecule itself; assay: single-molecule pull-down
# HA-SNAP-GluK3 = target: B1; assay: single-molecule pull-down
stoichiometry N (HA-SNAP-GluK3),Binder,stoichiometry N [1]
,"HA-SNAP-GluK2 (receptor, rat, UniProt P42260 32-908, looked up, SNAP tag labelled with SBG-OG (Oregon Green); for smFRET with BG-LD555 and BG-LD655) TTHVLRFGGIFEYVESGPMGAEELAFRFAVNTINRNRTLLPNTTLTYDTQKINLYDSFEASKKACDQLSLGVAAIFGPSHSSSANAVQSICNALGVPHIQTRWKHQVSDNKDSFYVSLYPDFSSLSRAILDLVQFFKWKTVTVVYDDSTGLIRLQELIKAPSRYNLRLKIRQLPADTKDAKPLLKEMKRGKEFHVIFDCSHEMAAGILKQALAMGMMTEYYHYIFTTLDLFALDVEPYRYSGVNMTGFRILNTENTQVSSIIEKWSMERLQAPPKPDSGLLDGFMTTDAALMYDAVHVVSVAVQQFPQMTVSSLQCNRHKPWRFGTRFMSLIKEAHWEGLTGRITFNKTNGLRTDFDLDVISLKEEGLEKIGTWDPASGLNMTESQKGKPANITDSLSNRSLIVTTILEEPYVLFKKSDKPLYGNDRFEGYCIDLLRELSTILGFTYEIRLVEDGKYGAQDDVNGQWNGMVRELIDHKADLAVAPLAITYVREKVIDFSKPFMTLGISILYRKPNGTNPGVFSFLNPLSPDIWMYILLAYLGVSCVLFVIARFSPYEWYNPHPCNPDSDVVENNFTLLNSFWFGVGALMQQGSELMPKALSTRIVGGIWWFFTLIIISSYTANLAAFLTVERMESPIDSADDLAKQTKIEYGAVEDGATMTFFKKSKISTYDKMWAFMSSRRQSVLVKSNEEGIQRVLTSDYAFLMESTTIEFVTQRNCNLTQIGGLIDSKGYGVGTPMGSPYRDKITIAILQLQEEGKLHMMKEKWWRGNGCPEEESKEASALGVQNIGGIFIVLAAGLVLSVFVAVGEFLYKSKKNAQLEKRSFCSAMVEELRMSLKCQRRLKHKPQAPVIVKTEEVINMHTFNDRRLPGKETMA",4
,"HA-SNAP-GluK1 (receptor, rat, UniProt P22756 31-949, looked up, SNAP tag labelled with SBG-OG (Oregon Green); for smFRET with BG-LD555 and/or BG-LD655) QTSPQVLRIGGIFETVENEPVNVEELAFKFAVTSINRNRTLMPNTTLTYDIQRINLFDSFEASRRACDQLALGVAALFGPSHSSSVSAVQSICNALEVPHIQTRWKHPSVDSRDLFYINLYPDYAAISRAVLDLVLYYNWKTVTVVYEDSTGLIRLQELIKAPSRYNIKIKIRQLPPANKDAKPLLKEMKKSKEFYVIFDCSHETAAEILKQILFMGMMTEYYHYFFTTLDLFALDLELYRYSGVNMTGFRKLNIDNPHVSSIIEKWSMERLQAPPRPETGLLDGMMTTEAALMYDAVYMVAIASHRASQLTVSSLQCHRHKPCALGPRFMNLIKEARWDGLTGRITFNKTDGLRKDFDLDIISLKEEGTEKASGEVSKHLYKVWKKIGIWNSNSGLNMTDGNRDRSNNITDSLANRTLIVTTILEEPYVMYRKSDKPLYGNDRFEAYCLDLLKELSNILGFLYDVKLVPDGKYGAQNDKGEWNGMVKELIDHRADLAVAPLTITYVREKVIDFSKPFMTLGISILYRKPNGTNPGVFSFLNPLSPDIWMYVLLACLGVSCVLFVIARFTPYEWYNPHPCNPDSDVVENNFTLLNSFWFGVGALMQQGSELMPKALSTRIVGGIWWFFTLIIISSYTANLAAFLTVERMESPIDSADDLAKQTKIEYGAVRDGSTMTFFKKSKISTYEKMWAFMSSRQQSALVKNSDEGIQRVLTTDYALLMESTSIEYVTQRNCNLTQIGGLIDSKGYGVGTPIGSPYRDKITIAILQLQEEGKLHMMKEKWWRGNGCPEEDSKEASALGVENIGGIFIVLAAGLVLSVFVAIGEFLYKSRKNNDVEQKGKSSRLRFYFRNKVRFHGSKKESLGVEKCLSFNAIMEELGISLKNQKKLKKKSRTKGKSSFTSILTCHQRRTQRKETVA",4
≤ 2 GluK5 subunits in a di-heteromer,"Halo-GluK5 (receptor, rat, UniProt Q63273 15-979, looked up, Halo tag labelled with CA-Sulfo549 (two-colour) or CA-Sulfo646 (three-colour)) NPSCQVLSSLRMAAILDDQTVCGRGERLALALAREQINGIIEVPAKARVEVDIFELQRDSQYETTDTMCQILPKGVVSVLGPSSSPASASTVSHICGEKEIPHIKVGPEETPRLQYLRFASVSLYPSNEDVSLAVSRILKSFNYPSASLICAKAECLLRLEELVRGFLISKETLSVRMLDDSRDPTPLLKEIRDDKVSTIIIDANASISHLVLRKASELGMTSAFYKYILTTMDFPILHLDGIVEDSSNILGFSMFNTSHPFYPEFVRSLNMSWRENCEASTYPGPALSAALMFDAVHVVVSAVRELNRSQEIGVKPLACTSANIWPHGTSLMNYLRMVEYDGLTGRVEFNSKGQRTNYTLRILEKSRQGHREIGVWYSNRTLAMNATTLDINLSQTLANKTLVVTTILENPYVMRRPNFQALSGNERFEGFCVDMLRELAELLRFRYRLRLVEDGLYGAPEPNGSWTGMVGELINRKADLAVAAFTITAEREKVIDFSKPFMTLGISILYRVHMGRKPGYFSFLDPFSPAVWLFMLLAYLAVSCVLFLAARLSPYEWYNPHPCLRARPHILENQYTLGNSLWFPVGGFMQQGSEIMPRALSTRCVSGVWWAFTLIIISSYTANLAAFLTVQRMEVPVESADDLADQTNIEYGTIHAGSTMTFFQNSRYQTYQRMWNYMQSKQPSVFVKSTEEGIARVLNSRYAFLLESTMNEYHRRLNCNLTQIGGLLDTKGYGIGMPLGSPFRDEITLAILQLQENNRLEILKRKWWEGGRCPKEEDHRAKGLGMENIGGIFVVLICGLIIAVFVAVMEFIWSTRRSAESEEVSVCQEMLQELRHAVSCRKTSRSRRRRRPGGPSRALLSLRAVREMRLSNGKLYSAGAGGDAGAHGGPQRLLDDPGPPGGPRPQAPTPCTHVRVCQECRRIQALRASGAGAPPRGLGTPAEATSPPRPRPGPTGPRELTEHE",
,B1,4
